The experiment deals with human FcRider (afucosylated two-unit tandem hIgG1 Fc joined by the trimerization sequence Foldon). Nature of the experiment: native gel or EMSA; blue native PAGE, 1.5 h at 150 V in NativePAGE running buffer; hFcRider purified by Protein A column; monomer ~65 kDa in reducing SDS-PAGE. In general terms: A gel shift assay detects complexes by their altered migration in electrophoresis.

These results are taken from publication PMC11456856.

“human FcRider (afucosylated two-unit tandem hIgG1 Fc joined by the trimerization sequence Foldon)” yielded a stoichiometry N of 6.

One may read the stoichiometry N as a count of units in the complex or per binding partner.
